B1: Tb017 scFv (scFv, V domains shown)
VH: QVQLVQSGAEVKKPGSSVKVSCKASGGTFSSYAISWVRQAPGQGLEWMGGIIPIFGTANYAQKFQGRVTITADESTSTAYMELSSLRSEDTAVYYCARGWWYDLVFDYWGQGTLVTVSS
VL: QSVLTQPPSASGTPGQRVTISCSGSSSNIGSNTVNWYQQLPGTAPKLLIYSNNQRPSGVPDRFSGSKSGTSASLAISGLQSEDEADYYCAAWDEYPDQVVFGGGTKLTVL
notes: The name Tb017 is printed for the IgG1 and its conjugate; source: phage produced from E. coli, phage-containing supernatant
B2: Tb073 scFv (scFv, V domains shown)
VH: B1 VH with W101Y, Y102D, D103M, L104G, V105D, Y108M
VL: QSVLTQPPSASGTPGQRVTISCSGSSSNIGSNTVNWYQQLPGTAPKLLIYSNNQRPSGVPDRFSGSKSGTSASLAISGLQSEDEADYYCAAWDWHHGHVVVFGGGTKLTVL
notes: The name Tb073 is printed for the IgG1 and its conjugate; source: phage produced from E. coli, phage-containing supernatant
B3: Tb078 scFv (scFv, V domains shown)
VH: B1 VH with W101I, D103E, L104F, V105I, F106I, Y108A
VL: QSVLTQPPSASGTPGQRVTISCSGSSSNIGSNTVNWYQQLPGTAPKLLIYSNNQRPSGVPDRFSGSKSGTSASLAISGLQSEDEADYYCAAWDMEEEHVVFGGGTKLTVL
notes: The name Tb078 is printed for the IgG1 and its conjugate; source: phage produced from E. coli, phage-containing supernatant
B4: Tb086 scFv (scFv, V domains shown)
VH: B1 VH with W101Y, D103H, L104G, V105G, F106I
VL: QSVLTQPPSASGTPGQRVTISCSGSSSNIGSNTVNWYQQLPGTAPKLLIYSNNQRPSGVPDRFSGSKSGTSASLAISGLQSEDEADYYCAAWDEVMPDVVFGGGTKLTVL
notes: The name Tb086 is printed for the IgG1; source: phage produced from E. coli, phage-containing supernatant
B5: Tb074 scFv (scFv, V domains shown)
VH: B1 VH with Y102H, D103E, L104P, V105G
VL: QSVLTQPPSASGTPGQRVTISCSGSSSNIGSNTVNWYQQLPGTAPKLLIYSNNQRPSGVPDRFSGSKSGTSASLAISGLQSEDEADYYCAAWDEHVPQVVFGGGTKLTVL
notes: The name Tb074 is printed for the IgG1 and its conjugates; source: phage produced from E. coli, phage-containing supernatant
B6: Tb085 scFv (scFv, V domains shown)
VH: B1 VH with G99E, W100G, Y102D, D103Y, L104G, V105W, Y108F
VL: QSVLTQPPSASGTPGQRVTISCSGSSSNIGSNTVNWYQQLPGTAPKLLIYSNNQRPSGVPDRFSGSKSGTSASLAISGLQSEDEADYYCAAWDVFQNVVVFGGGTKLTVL
notes: The name Tb085 is printed for the IgG1 and its conjugates; source: phage produced from E. coli, phage-containing supernatant

Positions count from the first letter of the chain named.

For the assay, the target named is T1, Recombinant HpHbR N-terminal domain (Trypanosoma brucei brucei (strain not …, biotin (biotinylated form on streptavidin-coated plates; a non-biotinylated form was coated on Maxisorp plates)).
T1 construct: also called HpHbR NTD; TbHpHbR NTD; source: recombinant, expressed as previously described (34)
Briefly: ELISA; phage ELISA: 10 ug/ml HpHbR NTD coated on Nunc Maxisorp plates or 5 ug/mL biotinylated NTD on streptavidin-coated plates overnight at 4°C; blocked phage supernatants 1 hr at room temperature; bound phage detected with anti-M13 HRP antibody; BSA and streptavidin in parallel. To be noted: one partner purified.
Turning to B1, the binding result is recorded as “binds”.

In the case of B2, the binding result was “binds”.

On to B3, for which the binding result was “binds”.

On to B4, for which the binding result is “binds”.

With B5, the binding result is “binds”.

On to B6, for which the binding result is “binds”.

The values above are taken from paper doi:10.1101/547208, “A single dose of antibody-1 drug conjugate cures a stage model of African trypanosomiasis” (bioRxiv, 2019).
